Reference: ChEMBL document CHEMBL1177690, “Target-specific control of lymphoid-specific protein tyrosine phosphatase (Lyp) activity” (Bioorg Med Chem, 2010)

Tests used:
[1] = substrate: O=C(O)c1ccccc1-c1c2ccc(=O)c([As]3SCCS3)c-2oc2c([As]3SCCS3)c(O)ccc12; assay: Activity at Lyp expressed in Escherichia coli using pNPP as a substrate […]
[2] = substrate: O=C(O)c1ccccc1-c1c2ccc(=O)c([As]3SCCS3)c-2oc2c([As]3SCCS3)c(O)ccc12; assay: Activity at Lyp expressed in Escherichia coli using DADEpYLIPQQG as a substrate […]

B1: Tyrosine-protein phosphatase non-receptor type 22 (Homo sapiens), Q9Y2R2 (protein)
chain: MDQREILQKFLDEAQSKKITKEEFANEFLKLKRQSTKYKADKTYPTTVAEKPKNIKKNRYKDILPYDYSRVELSLITSDEDSSYINANFIKGVYGPKAYIATQGPLSTTLLDFWRMIWEYSVLIIVMACMEYEMGKKKCERYWAEPGEMQLEFGPFSVSCEAEKRKSDYIIRTLKVKFNSETRTIYQFHYKNWPDHDVPSSIDPILELIWDVRCYQEDDSVPICIHCSAGCGRTGVICAIDYTWMLLKDGIIPENFSVFSLIREMRTQRPSLVQTQEQYELVYNAVLELFKRQMDVIRDKHSGTESQAKHCIPEKNHTLQADSYSPNLPKSTTKAAKMMNQQRTKMEIKESSSFDFRTSEISAKEELVLHPAKSSTSFDFLELNYSFDKNADTTMKWQTKAFPIVGEPLQKHQSLDLGSLLFEGCSNSKPVNAAGRYFNSKVPITRTKSTPFELIQQRETKEVDSKENFSYLESQPHDSCFVEMQAQKVMHVSSAELNYSLPYDSKHQIRNASNVKHHDSSALGVYSYIPLVENPYFSSWPPSGTSSKMSLDLPEKQDGTVFPSSLLPTSSTSLFSYYNSHDSLSLNSPTNISSLLNQESAVLATAPRIDDEIPPPLPVRTPESFIVVEEAGEFSPNVPKSLSSAVKVKIGTSLEWGGTSEPKKFDDSVILRPSKSVKLRSPKSELHQDRSSPPPPLPERTLESFFLADEDCMQAQSIETYSTSYPDTMENSTSSKQTLKTPGKSFTRSKSLKILRNMKKSICNSCPPNKPAESVQSNNSSSFLNFGFANRFSKPKGPRNPPPTWNI
kcat [1]: 0.49 s⁻¹ | kcat [2]: 3.84 s⁻¹
